Biological target: GST-NSD2-SET (Homo sapiens, UniProt O96028 941-1240)
Assay: EMSA

GST-NSD2-SET, sequence (O96028 941-1240): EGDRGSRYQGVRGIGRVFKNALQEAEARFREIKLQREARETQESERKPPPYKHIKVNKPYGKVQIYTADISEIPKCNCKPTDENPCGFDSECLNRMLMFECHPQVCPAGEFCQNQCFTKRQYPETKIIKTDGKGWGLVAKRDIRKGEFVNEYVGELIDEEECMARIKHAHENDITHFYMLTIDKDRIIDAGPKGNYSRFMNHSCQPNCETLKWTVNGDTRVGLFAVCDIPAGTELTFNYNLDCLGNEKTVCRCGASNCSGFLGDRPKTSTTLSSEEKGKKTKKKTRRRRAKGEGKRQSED

B1: 41-bp dsDNA (dsDNA)
DNA 1: CTCTCTTTGAGGACACCAACCTGGCGGCCATCCACGCCAAG
DNA 2: CTTGGCGTGGATGGCCGCCAGGTTGGTGTCCTCAAAGAGAG
- binding result: binds

— paper PMC2797197
